# Measured values taken from the DeepSol protein solubility set.
# Assay: soluble on expression in E. coli; label from the status in PepcDB or PDB records
row,Sequence,soluble on expression in E. coli
1,MKKRYSWEELARAMGIEPQRLENKEARELKKFVDEMTWPTHCNYCQGLDLTNPNPVHHPSYELTPACNHDCIFCYSNVAVKLGKAPKPGYYGWDNPKVITISQYGEPLLSPRIVEVNKMLRKRFPEARLDLQTNGSLLTRELWEKLDFDLVMISLNAADREKHRRIANADTFEQVVNALKIVGEDKSVRSVVRTVFMPGINDEDIPKIAELAASLGIDEMHLQPLTIHELNVERLKKAGLDFERAESIRELLKAAMEAKKYIDVRISGCILVQLKQMDPITLYSVRRVAREVVPLVKRSKLDILEHHHHHH,not soluble
2,MLSFTLRRAMSFTTRILKVRPESIQFVNDKPQISDNETLINLEIAAKELTTTHNAIGFPTETVYGLAGSALSDESVKSIYKAKNRPADNPLIVHISSIEQLKRKLINYEIPQVYLDLISHFWPGPLTILLPITKDSPISKLVTANQDTFAVRMPNHPVARALIAMSDTPIAAPSANASTRPSPTLAEHVYHDLNGKIPLILDGGACNVGVESTVIDGLVDPPMLLRPGGVSLEDIKRVGGKLWENIVVAKKTAGKLEPVKTPGMKYRHYSPTAKVVLFVNCGDGINAIENYLTNNKVDASTTKIALLKSKHFGEDHPHFIIKRLGTTGNEISHNLFKYLREVDEEDKVELIFVEGIDETNEGLAVMNRLSKAAMEVVNGGEA,soluble
3,MTNPTKPIPLNFDKPRRFMPPKHFADLSADERIDALKELGLPKFRANQIARHYYGRLEADPSTMTDLPAAAREKVKDALFPQLMQPVRAVQADDGETQKTLWKLHDGTLLESVLMRYPNRATLCISSQAGCGMACPFCATGQGGLDRNLSTGEIVDQVRAASATMQAEGGRLSNIVFMGMGEPLANYKRVVSAVRQITAPVPEGFGISQRNVTVSTVGLAPAIRKLADEDLSVTLAVSLHTPDDELRNTLVPTNNRWEVAEVLDAARYYADRSGRRVSIEYALIRDVNDQGWRADMLGKKLHKALGPLVHVNLIPLNPTPGSKWDASPMDRQKEFVQRVIAQGVTCTVRDTRGQEIAAACGQLAAEER,not soluble
4,SFNTYQHLLPETVRHLPDVKKQLAMVRPGLSMLSIFICLKGTKEDLKLQSTNYYVYFDTDMDKAMERYVSMPKEKAPEHIPLLFIAFPSSKDPTWEERFPDRSTMTALVPMAFEWFEEWQEEPKGKRGVDYETLKNAFVEASMSVIMKLFPQLEGKVESVTGGSPLTNQYYLAAPRGATYGADHDLARLHPHAMASIRAQTPIPNLYLTGQDIFTCGLMGALQGALLCSSAILKRNLYSDLQALGSKVKAQKKKM,soluble
5,HMTPQDHEKAALIMQVLQLTADQIAMLPPEQRQSILILKEQIQKSTGAP,soluble
6,MAESDWDTVTVLRKKGPTAAQAKSKQAILAAQRRGEDVETSKKWAAGQNKQHSITKNTAKLDRETEELHHDRVTLEVGKVIQRGRQSKGLTQKDLATKINEKPQVIADYESGRAIPNNQVLGKIERAIGLKLRGKDIGKPIEKGPKAK,soluble
7,MKILAFETSTEACSVALHVDGAVRERFELAPRRHAELALPWAEQLLAEAGISRRQLDAIAVGRGPGAFSGVRLAIGIVQGIALALDLPVLAISTLQVLALRAPAEASHVLACIDARMGEVYAGLFERQGEALLTLGSEVVCAPEAVLLPQSTPQWAGVGTGLAAGEMPLQQRFAGRLSSVDAAALPHAADLLTLALPAALRGEGVAPERVEPAYLRDNVALTLVEQQAARAAKAAAVPRLEHHHHHH,not soluble
8,AIAPTGEDNIVVPPAFDGESVSKNKEIYVTFGVDVDAVAGWLGSYGGEDSPFDISRGICAAEVGVPRLLELFRRFDLKTTWFLPGHSVESFPLQMRQVVAAGHEVGAHGYSHENPVRMTPKQEEDVLALSVQILENLTGKKPKGYVAPWWELSAATPELLLRYGFKYDHSQGHHDFQPYYARTAEKWTNIDYSKPARDWMKPLDRGQSVDLVEIPANWYVDDLPPMMFIKSAPNSHGFMNPRDIEDLWRDQFEWVYREYNFAVFPITIHPDVSGRPQVLLMLERFISYIRRFPGVHWTTMEEVAQIFRNKQPFLNA,soluble
9,RPARQVRRLEFNQAMDDFKTMFPNMDYDIIECVLRANSGAVDATIDQLLQMNLE,soluble
10,MATIPSVVREITLVGEQIFDHTQVVRAEIDRFVERFERNERHREFDGILRASHALVESSETPVEGLFDMGKMEHMTQCVDDITKKLQTLVEPKYQKEHDVYLEKVKEDQKKYVDVCREQAMNKMRSMTAHR,not soluble
11,MGSDKIHHHHHHVKVLVTGAAGFIGYSLATRLLARGDEVIGVDIVNDYYDPRLKEARLARLAQQGGGRFTFLRTDFADYPALTAALEGAHFDRIVHLGAQAGVRYSIENPHAYVQSNLVGHVNLLEVARHRGVEHMVYASSSSVYGGNTKLPFSVDDRVDHPLSLYAATKKADELMSETYAHLYRLPLTGLRFFTVYGPWGRPDMMMWLFTRAILAGEPIQVFNHGDMYRDFTYVDDIVSGVVACLDNPPLDDGAPKAGGSLKPHRLYNIGNHKSEHLMKVIAILEAELGRKAEMRMLPMQPGDVRQSFADIDAISGDLGYRPTTGIETGVPNFVRWYKDYHGL,not soluble
12,MAHHHHHHMSRNPSNSDAAHAFWSTQPVPQTEDETEKIVFAGPMDEPKTVADIPEEPYPIASTFEWWTPNMEAADDIHAIYELLRDNYVEDDDSMFRFNYSEEFLQWALCPPNYIPDWHVAVRRKADKKLLAFIAGVPVTLRMGTPKYMKVKAQEKGEGEEAAKYDEPRHICEINFLCVHKQLREKRLAPILIKEATRRVNRTNVWQAVYTAGVLLPTPYASGQYFHRSLNPEKLVEIRFSGIPAQYQKFQNPMAMLKRNYQLPSAPKNSGLREMKPSDVPQVRRILMNYLDSFDVGPVFSDAEISHYLLPRDGVVFTYVVENDKKVTDFFSFYRIPSTVIGNSNYNLLNAAYVHYYAATSIPLHQLILDLLIVAHSRGFDVCNMVEILDNRSFVEQLKFGAGDGHLRYYFYNWAYPKIKPSQVALVML,not soluble
13,MALSKFNLFIGDILFNTLTGYAIKLESWEIEKLRKGVVPEHLKDIIEEGFSATDEDLDEEIEKFLRKPVLEPTLVLTYNCNFDCIYCFQKGFRKNISVSDKVTRGFVNYIRKNEKGRKVRVTYFGGEPILQLRKIEEISRELSDLKYSFSVVTNGSLLTRKIVERLIPLGLTHVQITLDGPKEVHDKRRFFVSGEGTFDVIVKNLKEIQDMVKVVLRINIDVKNLNEIGELLNELKMEGINRVRLDPHLVHSNVFRNEWWDFTISSKAEGDVMVKFWEIARKYGFEVPQDVLRLGLCVAYSSEDIVVDPEGNIYPCWAFTGNPLYVKGKLEEDGSVKVTNKSLWWKVKIEDKCRECPFLPLCMGGCKFLATINGDDCKREAYEKIVRSIRWVMG,not soluble
14,GMAVECIKDKVTRYPERASYSDEDLVAMLDRNFTCTVSFIDGGIPYAIPMMLASEGKTIYLHGSMKSRIYGILKTGQLIAISLLEINGIVLAKEIKNNSINYVSALIFGRPYEIDDTEKKIEVFRLLTEKLVKGRWDNSIKPSYEDLNGVFVFAVKPETFSMKARTGPPHDTSTDDIWSGVLPIQHTISEAGENAPEYVKSLYGKRIFI,soluble
15,MYNDPRSHGLWEKTAPQPPVTPALQGDAVADVVVVGGGFTGQSAALHLAEGGLDVILLEAKEIGFGGAGRNVGLINGGMWVMPKELPDVLGETYGERLLDLLGDAPVLVRELVEKHGIPCEIEKNGTLHCAVGEKGLAEIRERCEQWSARGAPVRVLDADETASYIGSTAYSGALLDSRAGTIQPLAYVRGLAGAALKAGVRLHTASPVNETGRNGAKWVVKTPEGSVTAKWIVVATEAYSTGPWQIIREEQVYLPYFNFATRPLSDNLQKSILPGRQGCWDTKEILSSFRMDKAGRLVFGSVGALRGTGTAIHRAWAKRSLKRLFPQLGDTEFECEWYGQIGMTDNAVPRFHKFAENVIGFSGYNGRGIAPGTAFGKVIAQHILGEIAEADLPLPVTEPKAQAFRAVKEAYYEAGAQIAHFAGERFLEHHHHHH,not soluble
16,MGSDKIHHHHHHMATTTIYEDLSAAYDLENMQALMATKDLLGAMLRIHFILEAFLDIWCNKITNCEDFFDLKRFTSFDTKLEISKKLGLPSELAVVFKLFNKIRNKFAHRPNYVICSNDLDNIHQAINQINTHDNHSKFTMIVFNEREIRWDTPDIPIIDSLLLNYFTLSQKVNDVFANEFSKRNISFTIQGQQA,not soluble
